Results on two substances are retold here after patent publication US20110165156A1.

What all share (test): cell-based or functional assay
In assay [1] the target is CSF-1R of cynomolgous monocytes (cynomolgous).
The target of assay [2] is human mutant CSF-1R L301S Y969F, on cells (human) (UniProt P07333).
The target in assay [3] is human wildtype CSF-1R (wt CSF-1R), full-length, on cells (human) (UniProt P07333).

In assay [1], “Anti CSF-1R SC 2-4A5 (Santa Cruz Biotechnology, US) (antibody)” registered a % inhibition (of survival) = (100% - % survival) of 69% and a % survival (cynomolgous monocytes, 5 µg/ml antibody) of 31%. In assay [2], this substance came in with a Mutant CSF-1R IC30 (cell viability, 3D culture, CellTiterGlo) of 2.56 µg/mL and a Mutant CSF-1R IC50 (cell viability, 3D culture, CellTiterGlo) of 10 µg/mL. In assay [3], this substance gave a wtCSF-1R IC30 (cell viability, 3D culture, CellTiterGlo) of 16.6 µg/mL and a wtCSF-1R IC50 (cell viability, 3D culture, CellTiterGlo) of 10 µg/mL.

What is called % inhibition is how much of the control response was suppressed. Lower therefore signals a weak effect. In assay [2], “goat polyclonal anti-CSF-1R antibody ab10676 (abcam)” displayed a % inhibition at 20 µg/ml, mutant CSF-1R cells of 0% and a Mutant CSF-1R IC30 (cell viability, 3D culture, CellTiterGlo) of over 20 µg/mL. Further, in assay [3], the wtCSF-1R IC30 (cell viability, 3D culture, CellTiterGlo) came out at 14.2 µg/mL.
